The data set deals with NR4A2 R319A (UniProt Q06219 1-598, R319A). Put plainly: EMSA; EMSA: 1 ug protein, 10 mM Tris pH 8, 50 mM NaCl, 1 mM EDTA, 5% glycerol, 5 mM DTT, 20 ng/ul dIdC, 1.25 mg/ml BSA, 20 min room temperature; 5% PAGE 0.25x TBE. PAR dot blots left out (PAR is not a defined nucleic acid). The conditions noted are these: protein: recombinant; tags: GST tag cleaved (PreScission); label: 32P (alpha-32P-dCTP Klenow fill-in); 5' overhang 4 nt (GATC) on both ends before Klenow fill-in. For orientation: Mobility shift assays separate free from complexed probe on a gel.

Results on one molecule are retold here after article PMC6381605, “NR4A Nuclear Receptors Target Poly-ADP-Ribosylated DNA-PKcs Protein to Promote DNA Repair”.

NR4A2 R319A, sequence (Q06219 whole entry R319A): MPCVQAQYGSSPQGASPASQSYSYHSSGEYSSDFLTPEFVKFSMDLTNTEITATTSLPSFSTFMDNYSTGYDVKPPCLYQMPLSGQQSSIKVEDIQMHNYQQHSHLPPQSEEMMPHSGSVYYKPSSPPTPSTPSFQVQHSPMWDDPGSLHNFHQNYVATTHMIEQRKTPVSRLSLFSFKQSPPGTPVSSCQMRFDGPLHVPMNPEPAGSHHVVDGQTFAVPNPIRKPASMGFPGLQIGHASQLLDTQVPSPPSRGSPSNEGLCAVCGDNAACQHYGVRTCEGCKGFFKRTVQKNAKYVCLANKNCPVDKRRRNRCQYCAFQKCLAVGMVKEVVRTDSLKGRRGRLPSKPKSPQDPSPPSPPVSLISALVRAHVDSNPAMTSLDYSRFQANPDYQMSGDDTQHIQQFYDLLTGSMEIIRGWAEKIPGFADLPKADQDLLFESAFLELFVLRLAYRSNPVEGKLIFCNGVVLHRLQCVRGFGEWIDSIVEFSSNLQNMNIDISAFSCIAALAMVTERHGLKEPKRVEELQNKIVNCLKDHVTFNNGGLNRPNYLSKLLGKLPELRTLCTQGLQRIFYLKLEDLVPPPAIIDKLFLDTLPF

B1: NBRE (dsDNA)
DNA 1: GATCCTCGTGCGAAAAGGTCAAGCGCTA
DNA 2: GATCTAGCGCTTGACCTTTTCGCACGAG
For the molecule B1, the binding result is on record as “no binding”.
